B1: Azoarcus group I ribozyme (parent)
chain: GUGCCUUGCGCCGGGAAACCACGCAAGGGAUGGUGUCAAAUUCGGCGAAACCUAAGCGCCCGCCCGGGCGUAUGGCAACGCCGAGCCAAGCUUCGGCGCCUGCGCCGAUGAAGGUGUAGAGACUAGACGGCACCCACCUAAGGCAAACGCUAUGGUGAAGGCAUAGUCCAGGGAGUGGCGAAAGUCACACAAACCGG

Variants of: B1
Assay: reverse-splicing fitness (ratio to wild type); higher = more active; in vitro selection; Mg2+ level not given
Procedure, shortened: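 An in vitro group I ribozyme library with randomized positions was T7-transcribed and gel-purified. In triplicate, 10 pmol RNA in EPPS pH 7.5 was reacted with 50 pmoles of a 30-nt RNA substrate for 1 h at 37 °C across several added MgCl2 levels (1–48 mM), then stopped with EDTA. Products were reverse transcribed from a substrate-complementary primer, PCR-amplified and sequenced (HiSeq 4000). Fitness is a variant's read proportion after selection over that before, normalised to wild type.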

Q: Which reverse-splicing fitness does the source give for GUGCCUUGCGCCGGGAAACCACGCAAGGGAUGGUGUCAAAUUCGGCGAAACCUAAGCGCCCGCCCGGGCGUAUGGCAACGCGGAGCCAAGCUUCGGCGCCUGCGCCGAUGUAGGUGUAGAGACUAGACGGCACCCACCUAAGGCAAACGUUAUGGUGAAGGCAUAGUCGAGGGAGGGGCGAAAGUCACACAAACCGG [C82G A111U C150U C169G U176G] here?
A: Its reverse-splicing fitness is 0.00689.

Q: For GUGCCUUGCGCCGGGAAACCACGCAAGGGAUGGUGUCAAAUUCGGCGAAACCUAAGCGCCCGCCCGGGCGUAUGGCAACGCGGAGCCAAGCUUCGGCGCCUGCGCCGAUGUAGGUGUAGAGACUAGACGGCACCCACCUAAGGCAAACGUUAUGGUGAAGGCAUAGUCGAGGGAGCGGCGAAAGUCACACAAACCGG [C82G A111U C150U C169G U176C], which reverse-splicing fitness is on record?
A: Its reverse-splicing fitness is 0.0169.

Q: Which reverse-splicing fitness does the source give for GUGCCUUGCGCCGGGAAACCACGCAAGGGAUGGUGUCAAAUUCGGCGAAACCUAAGCGCCCGCCCGGGCGUAUGGCAACGCGGAGCCAAGCUUCGGCGCCUGCGCCGAUGUAGGUGUAGAGACUAGACGGCACCCACCUAAGGCAAACGUUAUGGUGAAGGCAUAGUCUAGGGAGUGGCGAAAGUCACACAAACCGG [C82G A111U C150U C169U] here?
A: Its reverse-splicing fitness is 0.0118.

Q: Which reverse-splicing fitness does the source give for GUGCCUUGCGCCGGGAAACCACGCAAGGGAUGGUGUCAAAUUCGGCGAAACCUAAGCGCCCGCCCGGGCGUAUGGCAACGCGGAGCCAAGCUUCGGCGCCUGCGCCGAUGUAGGUGUAGAGACUAGACGGCACCCACCUAAGGCAAACGUUAUGGUGAAGGCAUAGUCCAGGGAGCGGCGAAAGUCACACAAACCGG [C82G A111U C150U U176C] here?
A: The reverse-splicing fitness was 0.131.

Q: Which reverse-splicing fitness does the source give for GUGCCUUGCGCCGGGAAACCACGCAAGGGAUGGUGUCAAAUUCGGCGAAACCUAAGCGCCCGCCCGGGCGUAUGGCAACGCGGAGCCAAGCUUCGGCGCCUGCGCCGAUGUAGGUGUAGAGACUAGACGGCACCCACCUAAGGCAAACGUUAUGGUGAAGGCAUAGUCCAGGGAGAGGCGAAAGUCACACAAACCGG [C82G A111U C150U U176A] here?
A: The reverse-splicing fitness was 0.0918.

Q: Which reverse-splicing fitness does the source give for GUGCCUUGCGCCGGGAAACCACGCAAGGGAUGGUGUCAAAUUCGGCGAAACCUAAGCGCCCGCCCGGGCGUAUGGCAACGCGGAGCCAAGCUUCGGCGCCUGCGCCGAUGUAGGUGUAGAGACUAGACGGCACCCACCUAAGGCAAACGUUAUGGUGAAGGCAUAGUCCAGGGAGGGGCGAAAGUCACACAAACCGG [C82G A111U C150U U176G] here?
A: Its reverse-splicing fitness is 0.0348.

Q: Which reverse-splicing fitness does the source give for GUGCCUUGCGCCGGGAAACCACGCAAGGGAUGGUGUCAAAUUCGGCGAAACCUAAGCGCCCGCCCGGGCGUAUGGCAACGCGGAGCCAAGCUUCGGCGCCUGCGCCGAUGUAGGUGUAGAGACUAGACGGCACCCACCUAAGGCAAACGCUAUGGUGAAGGCAUAGUCAAGGGAGUGGCGAAAGUCACACAAACCGG [C82G A111U C169A] here?
A: The reverse-splicing fitness was 0.00938.

Q: Which reverse-splicing fitness does the source give for GUGCCUUGCGCCGGGAAACCACGCAAGGGAUGGUGUCAAAUUCGGCGAAACCUAAGCGCCCGCCCGGGCGUAUGGCAACGCGGAGCCAAGCUUCGGCGCCUGCGCCGAUGUAGGUGUAGAGACUAGACGGCACCCACCUAAGGCAAACGCUAUGGUGAAGGCAUAGUCGAGGGAGUGGCGAAAGUCACACAAACCGG [C82G A111U C169G] here?
A: The reverse-splicing fitness was 0.00946.

Q: With GUGCCUUGCGCCGGGAAACCACGCAAGGGAUGGUGUCAAAUUCGGCGAAACCUAAGCGCCCGCCCGGGCGUAUGGCAACGCGGAGCCAAGCUUCGGCGCCUGCGCCGAUGUAGGUGUAGAGACUAGACGGCACCCACCUAAGGCAAACGCUAUGGUGAAGGCAUAGUCGAGGGAGAGGCGAAAGUCACACAAACCGG [C82G A111U C169G U176A] as the variant, how does the reverse-splicing fitness read?
A: Its reverse-splicing fitness is 0.0157.

Q: With GUGCCUUGCGCCGGGAAACCACGCAAGGGAUGGUGUCAAAUUCGGCGAAACCUAAGCGCCCGCCCGGGCGUAUGGCAACGCGGAGCCAAGCUUCGGCGCCUGCGCCGAUGUAGGUGUAGAGACUAGACGGCACCCACCUAAGGCAAACGCUAUGGUGAAGGCAUAGUCAAGGGAGCGGCGAAAGUCACACAAACCGG [C82G A111U C169A U176C] as the variant, how does the reverse-splicing fitness read?
A: The reverse-splicing fitness was 0.0203.

Q: With GUGCCUUGCGCCGGGAAACCACGCAAGGGAUGGUGUCAAAUUCGGCGAAACCUAAGCGCCCGCCCGGGCGUAUGGCAACGCGGAGCCAAGCUUCGGCGCCUGCGCCGAUGUAGGUGUAGAGACUAGACGGCACCCACCUAAGGCAAACGCUAUGGUGAAGGCAUAGUCAAGGGAGAGGCGAAAGUCACACAAACCGG [C82G A111U C169A U176A] as the variant, how does the reverse-splicing fitness read?
A: The reverse-splicing fitness was 0.0152.

Q: Which reverse-splicing fitness does the source give for GUGCCUUGCGCCGGGAAACCACGCAAGGGAUGGUGUCAAAUUCGGCGAAACCUAAGCGCCCGCCCGGGCGUAUGGCAACGCGGAGCCAAGCUUCGGCGCCUGCGCCGAUGUAGGUGUAGAGACUAGACGGCACCCACCUAAGGCAAACGCUAUGGUGAAGGCAUAGUCAAGGGAGGGGCGAAAGUCACACAAACCGG [C82G A111U C169A U176G] here?
A: Its reverse-splicing fitness is 0.00627.

Q: For GUGCCUUGCGCCGGGAAACCACGCAAGGGAUGGUGUCAAAUUCGGCGAAACCUAAGCGCCCGCCCGGGCGUAUGGCAACGCGGAGCCAAGCUUCGGCGCCUGCGCCGAUGUAGGUGUAGAGACUAGACGGCACCCACCUAAGGCAAACGUUAUGGUGAAGGCAUAGUCUAGGGAGCGGCGAAAGUCACACAAACCGG [C82G A111U C150U C169U U176C], which reverse-splicing fitness is on record?
A: Its reverse-splicing fitness is 0.013.

Q: Which reverse-splicing fitness does the source give for GUGCCUUGCGCCGGGAAACCACGCAAGGGAUGGUGUCAAAUUCGGCGAAACCUAAGCGCCCGCCCGGGCGUAUGGCAACGCGGAGCCAAGCUUCGGCGCCUGCGCCGAUGUAGGUGUAGAGACUAGACGGCACCCACCUAAGGCAAACGUUAUGGUGAAGGCAUAGUCUAGGGAGGGGCGAAAGUCACACAAACCGG [C82G A111U C150U C169U U176G] here?
A: The reverse-splicing fitness was 0.00694.

Q: With GUGCCUUGCGCCGGGAAACCACGCAAGGGAUGGUGUCAAAUUCGGCGAAACCUAAGCGCCCGCCCGGGCGUAUGGCAACGCGGAGCCAAGCUUCGGCGCCUGCGCCGAUGUAGGUGUAGAGACUAGACGGCACCCACCUAAGGCAAACGUUAUGGUGAAGGCAUAGUCUAGGGAGAGGCGAAAGUCACACAAACCGG [C82G A111U C150U C169U U176A] as the variant, how does the reverse-splicing fitness read?
A: The reverse-splicing fitness was 0.014.
